Consider 23 molecules from publication PMC6555819, “Comprehensive study of nuclear receptor DNA binding provides a revised framework for understanding receptor specificity”.

The chains are these.
B1: NRC3_wobSeed137_DR5_A16G_o1 (dsDNA)
DNA 1: GCATATGTAGGTTACGTCCGGGTCATTCAGGCTATGGCGATTGACAGCGTAGAATGAAGG
DNA 2: CCTTCATTCTACGCTGTCAATCGCCATAGCCTGAATGACCCGGACGTAACCTACATATGC
B2: NRC3_wobSeed73_DR3_T21G_o1 (dsDNA)
DNA 1: GCCAAACTAGGTCACAGAGGGCAAAGTCCGTGCGTAGCGATTGACAGCGTAGAATGAAGG
DNA 2: CCTTCATTCTACGCTGTCAATCGCTACGCACGGACTTTGCCCTCTGTGACCTAGTTTGGC
B3: NRC3_wobSeed73_DR3_T21A_o1 (dsDNA)
DNA 1: GCCAAACTAGGTCACAGAGGACAAAGTCCGTGCGTAGCGATTGACAGCGTAGAATGAAGG
DNA 2: CCTTCATTCTACGCTGTCAATCGCTACGCACGGACTTTGTCCTCTGTGACCTAGTTTGGC
B4: NRC3_wobSeed64_DR2_T16A_o1 (dsDNA)
DNA 1: GCTAGCCTAGGTCATAGGGCCAGTATAGTACGCATCGCGATTGACAGCGTAGAATGAAGG
DNA 2: CCTTCATTCTACGCTGTCAATCGCGATGCGTACTATACTGGCCCTATGACCTAGGCTAGC
B5: NRC3_wobSeed88_DR3_T15A_o1 (dsDNA)
DNA 1: GCTAGCCTAGGTCAAGCGGGCCAGTATAGTGTCGGCGCGATTGACAGCGTAGAATGAAGG
DNA 2: CCTTCATTCTACGCTGTCAATCGCGCCGACACTATACTGGCCCGCTTGACCTAGGCTAGC
B6: NRC3_wobSeed63_DR2_G19A_o1 (dsDNA)
DNA 1: GCCGAACTAGGTCACCAGAACAGTGAAGAGGTTGGAGCGATTGACAGCGTAGAATGAAGG
DNA 2: CCTTCATTCTACGCTGTCAATCGCTCCAACCTCTTCACTGTTCTGGTGACCTAGTTCGGC
B7: NRC3_wobSeed6_DR0_A6G_o1 (dsDNA)
DNA 1: GCCCTGGCAGGCCAGGGTCACTCAAGCATTTCGCTTGCGATTGACAGCGTAGAATGAAGG
DNA 2: CCTTCATTCTACGCTGTCAATCGCAAGCGAAATGCTTGAGTGACCCTGGCCTGCCAGGGC
B8: NRC3_wobSeed6_DR0_C13G_o1 (dsDNA)
DNA 1: GCCCTAGCAGGCGAGGGTCACTCAAGCATTTCGCTTGCGATTGACAGCGTAGAATGAAGG
DNA 2: CCTTCATTCTACGCTGTCAATCGCAAGCGAAATGCTTGAGTGACCCTCGCCTGCTAGGGC
B9: NRC3_wobSeed36_DR1_A26G_o1 (dsDNA)
DNA 1: GCCCGACTGGGGCAAAGGTTACCATGCTCAGTACGAGCGATTGACAGCGTAGAATGAAGG
DNA 2: CCTTCATTCTACGCTGTCAATCGCTCGTACTGAGCATGGTAACCTTTGCCCCAGTCGGGC
B10: NRC3_wobSeed21_DR0_T18C_o1 (dsDNA)
DNA 1: GCCGTCAAAGTTCAAGGCAACGTAACAGAAAGCAGCGCGATTGACAGCGTAGAATGAAGG
DNA 2: CCTTCATTCTACGCTGTCAATCGCGCTGCTTTCTGTTACGTTGCCTTGAACTTTGACGGC
B11: NRC3_wobSeed32_DR1_C4A_o1 (dsDNA)
DNA 1: GCTATTGTAGATCAAAGGTTAAGAAAGCCGAAGCCTGCGATTGACAGCGTAGAATGAAGG
DNA 2: CCTTCATTCTACGCTGTCAATCGCAGGCTTCGGCTTTCTTAACCTTTGATCTACAATAGC
B12: NRC3_wobSeed50_DR2_T12G_o1 (dsDNA)
DNA 1: GCCCTAGTTGGGCAGGAGGTCACACACCGGATATGAGCGATTGACAGCGTAGAATGAAGG
DNA 2: CCTTCATTCTACGCTGTCAATCGCTCATATCCGGTGTGTGACCTCCTGCCCAACTAGGGC
B13: NRC3_wobSeed134_DR5_o1 (dsDNA)
DNA 1: GCGCTGCTAGGTCAACTGATGGTCAGCTAAAGCTCGGCGATTGACAGCGTAGAATGAAGG
DNA 2: CCTTCATTCTACGCTGTCAATCGCCGAGCTTTAGCTGACCATCAGTTGACCTAGCAGCGC
B14: NRC3_wobSeed4_DR0_T8G_o1 (dsDNA)
DNA 1: GCCCTACGGGGCCAAGGTCATTGATCAGTCAAAGCAGCGATTGACAGCGTAGAATGAAGG
DNA 2: CCTTCATTCTACGCTGTCAATCGCTGCTTTGACTGATCAATGACCTTGGCCCCGTAGGGC
B15: NRC3_wobSeed65_DR2_T8C_o1 (dsDNA)
DNA 1: GCATATGCAGGTTATCGGGTCATTCAGTTTGCGCATGCGATTGACAGCGTAGAATGAAGG
DNA 2: CCTTCATTCTACGCTGTCAATCGCATGCGCAAACTGAATGACCCGATAACCTGCATATGC
B16: NRC3_wobSeed65_DR2_A9G_o1 (dsDNA)
DNA 1: GCATATGTGGGTTATCGGGTCATTCAGTTTGCGCATGCGATTGACAGCGTAGAATGAAGG
DNA 2: CCTTCATTCTACGCTGTCAATCGCATGCGCAAACTGAATGACCCGATAACCCACATATGC
B17: NRC3_wobSeed99_DR4_G10T_o1 (dsDNA)
DNA 1: GCTCTCGGATGACACGAAAGGTCAGAGCTCGACATCGCGATTGACAGCGTAGAATGAAGG
DNA 2: CCTTCATTCTACGCTGTCAATCGCGATGTCGAGCTCTGACCTTTCGTGTCATCCGAGAGC
B18: NRC3_wobSeed124_DR5_T16A_o1 (dsDNA)
DNA 1: GCCCTACTGGGCCATACAGAGGTCATTGATCATATGGCGATTGACAGCGTAGAATGAAGG
DNA 2: CCTTCATTCTACGCTGTCAATCGCCATATGATCAATGACCTCTGTATGGCCCAGTAGGGC
B19: NRC3_wobSeed124_DR5_G10T_o1 (dsDNA)
DNA 1: GCCCTACTGTGCCATTCAGAGGTCATTGATCATATGGCGATTGACAGCGTAGAATGAAGG
DNA 2: CCTTCATTCTACGCTGTCAATCGCCATATGATCAATGACCTCTGAATGGCACAGTAGGGC
B20: NRC3_wobSeed124_DR5_A6T_o1 (dsDNA)
DNA 1: GCCCTTCTGGGCCATTCAGAGGTCATTGATCATATGGCGATTGACAGCGTAGAATGAAGG
DNA 2: CCTTCATTCTACGCTGTCAATCGCCATATGATCAATGACCTCTGAATGGCCCAGAAGGGC
B21: NRC3_wobSeed124_DR5_T5C_o1 (dsDNA)
DNA 1: GCCCCACTGGGCCATTCAGAGGTCATTGATCATATGGCGATTGACAGCGTAGAATGAAGG
DNA 2: CCTTCATTCTACGCTGTCAATCGCCATATGATCAATGACCTCTGAATGGCCCAGTGGGGC
B22: NRC3_wobSeed74_DR3_A14G_o1 (dsDNA)
DNA 1: GCTCTAGTTGGTCGCGGAGGTCACACACGACGGGTAGCGATTGACAGCGTAGAATGAAGG
DNA 2: CCTTCATTCTACGCTGTCAATCGCTACCCGTCGTGTGTGACCTCCGCGACCAACTAGAGC
B23: NRC3_wobSeed46_DR1_T22G_o1 (dsDNA)
DNA 1: GCTTACCAAGGTGAAAGGTCGGTGATGCACGCCTTGGCGATTGACAGCGTAGAATGAAGG
DNA 2: CCTTCATTCTACGCTGTCAATCGCCAAGGCGTGCATCACCGACCTTTCACCTTGGTAAGC

In the data set the target is RXRa (Homo sapiens, UniProt P19793). As to the kind of experiment: no ligand; PBM; 180 nM; PBS pH 7.4, 2% milk, 0.02% Triton X-100, 1 mM DTT, BSA, 0.4 mg/ml salmon testes DNA. The conditions noted are these: tags: His cleaved; chain copies: 2; label: surface-attached array probe.
Sequence of RXRa (P19793 whole entry): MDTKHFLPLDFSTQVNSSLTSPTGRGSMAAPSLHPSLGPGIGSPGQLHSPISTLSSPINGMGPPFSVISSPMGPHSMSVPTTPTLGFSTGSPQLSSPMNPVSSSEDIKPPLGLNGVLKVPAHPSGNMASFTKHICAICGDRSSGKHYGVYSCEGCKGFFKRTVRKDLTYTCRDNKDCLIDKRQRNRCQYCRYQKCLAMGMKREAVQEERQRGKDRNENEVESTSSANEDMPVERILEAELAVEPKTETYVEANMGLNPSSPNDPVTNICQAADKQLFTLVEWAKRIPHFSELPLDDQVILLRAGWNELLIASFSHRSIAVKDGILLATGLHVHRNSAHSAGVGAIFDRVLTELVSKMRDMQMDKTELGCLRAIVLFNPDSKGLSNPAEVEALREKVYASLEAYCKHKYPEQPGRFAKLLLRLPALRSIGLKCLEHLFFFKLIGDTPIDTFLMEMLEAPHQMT
In the case of B1, the binding signal was 3.33 PBM z-score against 500 random probes.
With B2 the figure was 4.01 PBM z-score against 500 random probes; with B3, 3.55 PBM z-score against 500 random probes.
Under B4 stands 3.11 PBM z-score against 500 random probes; under B5, 3.14 PBM z-score against 500 random probes.
Under B6 stands 3.24 PBM z-score against 500 random probes; under B7, 3.39 PBM z-score against 500 random probes.
Regarding B8, the binding signal was 3.19 PBM z-score against 500 random probes.
With B9 the figure was 3.81 PBM z-score against 500 random probes; with B10, 3.96 PBM z-score against 500 random probes.
Under B11 stands 3.28 PBM z-score against 500 random probes; under B12, 3.92 PBM z-score against 500 random probes.
With B13 the figure was 3.07 PBM z-score against 500 random probes; with B14, 3.5 PBM z-score against 500 random probes.
Regarding B15, the binding signal was 3.65 PBM z-score against 500 random probes.
Take B16: the binding signal was 3.44 PBM z-score against 500 random probes.
With B17 the figure was 4.05 PBM z-score against 500 random probes.
On to B18, for which the binding signal is 4.2 PBM z-score against 500 random probes.
Consider B19, for which the binding signal is 3.59 PBM z-score against 500 random probes.
With B20 the figure was 3.71 PBM z-score against 500 random probes; with B21, 3.75 PBM z-score against 500 random probes.
As to B22, the binding signal is 4.16 PBM z-score against 500 random probes.
Regarding B23, the binding signal was 3.86 PBM z-score against 500 random probes.
